Read-outs that look alike come from different tables or passages of the source.

Series [1] is described as follows: Critical micelle concentration of peptide conjugates (Nile Red). Type of series: physicochemical. The conditions noted are these: PBS (5% DMSO), Nile Red 1.0 μM, room temperature overnight; intersection of tangents. On the procedure:
(§1) The second-order rate constant for the labeling reactions between tetrazine 1 and Cys was determined at 25 °C in PB (30% MeCN, 20 mM, pH 8.0) under second-order conditions using a 6000+ (Quawell) UV-Vis spectrophotometer. The concentrations of cysteine and tetrazine were identical. The specific difference in absorption wavelength (300 nm) between 1 and Cys-1 was measured over time. The second-order rate constant k2 was calculated from the slope of a plot of (1/c – 1/c0) versus time.
(§2) 5. Competitive labeling reaction with other nucleophilic amino acids
(§3) For the competitive labeling experiment, 10 equiv. (2 mM) of N-Fmoc-Lys, N-Fmoc-Arg, Ser, Tyr, and 1.3 equiv. […] The resulting solution was maintained at 25 °C and monitored by LC –MS. […]
(§4) Each voTz analogue (1.1 equiv.) was added to a 0.25 mL vial containing solvent. […] The chromatogram peak areas of all relevant Cys -containing species were integrated, and the yiel d was determined using the following equation: Yield (%) = Iproduct/(Istarting + Iproduct + Ioxidation + Iside product) × 100, where Istarting, Iproduct, Ioxidation, and Iside product respectively represent the average ion counts of remaining starting material, product, oxidized starting material and any side product, if present 2. […]
(§5) DLS analyses and particle zeta potential values were determined using a Nano ZS ZEN 3690 instrument (Malvern […]

A short description of series [2]: Nano-structure characterization of peptide conjugates (Tyndall effect, DLS, zeta potential, TEM). Type of series: physicochemical. The conditions noted are these: 50 μM in H2O (2% DMSO), sonicated 10 min; mean of 3 measurements. On the procedure:
as §1, §2, §3, §4, §5

The nature of the next series: Stability in FBS (serum). The conditions noted are these: for remaining at 1 h, 50 μM / remaining at 2 h, 50 μM / remaining at 3 h, 50 μM / RGD-Dox (%): stability in the FBS; for remaining at 1 h, 50 μM / remaining at 2 h, 50 μM / remaining at 3 h, 50 μM: read-out: RGD-Dox (%). The format is in vitro ADME. The protocol: The results are shown as the mean ± SD. Source data are provided as a Source Data file. […]
Supplementary Fig. 48. Stability of RGD-Dox in the 50% FBS. RGD-Dox was diluted to a concentration of 50 μM
using 50% FBS/PBS (10% DMSO). The mixture was homogenized and incubated at 37 °C. The stability of RGD-Dox
was assessed by measuring the decrease in peak area at 520 nm (with the initial peak area at 0 min defined as 100%).
This measurement was monitored by HPLC–MS. Independent measurements were taken three times. The results are
shown as the mean ± SD. Source data are provided as a Source Data file. […]
Source data are provided as a Source Data file.

Another series has as its system LX2 cells. Put plainly: Cell uptake by fluorescence imaging, LX2. Type of series: cell-based, Human. The conditions noted are these: αvβ3-negative, 10 μM, 2 h.

In the case of `COc1cccc2c1C(=O)c1c(O)c3c(c(O)c1C2=O)C[C@@](O)(C(=O)CO)C[C@@H]3O[C@H]1C[C@H](NC(=O)OCc2nnc(CCSC[C@@H]3NC(=O)[C@@H](Cc4ccc(O)cc4)NC(=O)[C@H](CC(=O)O)NC(=O)CNC(=O)[C@H](CCCNC(=N)N)NC3=O)nn2)[C@H](O)[C@H](C)O1` [RGD-Dox], the “critical micellar concentration (CMC)” value in series [1] is 3.31 µM. Further, the “average particle diameter (DLS)” value in series [2] came to 168 nm. The remaining at 5 h, 50 μM in “Stability in FBS (serum)” (bovine, serum, 5 h, 37 °C, 50 μM in 50% FBS/PBS (10% DMSO), HPLC–MS peak area 520 nm, n = 3, read-out: intact in serum) was found to be 80%. In addition, the remaining at 1 h, 50 μM was 97% in “Stability in FBS (serum)” (bovine, serum, Data 1) and 93% in the series “Stability in FBS (serum)” (bovine, serum, Data 3). For the same compound, the remaining at 2 h, 50 μM in “Stability in FBS (serum)” (bovine, serum, Data 1) came to 88%; in “Stability in FBS (serum)” (bovine, serum, Data 3), 89%. Also, the remaining at 3 h, 50 μM in the series “Stability in FBS (serum)” (bovine, serum, Data 1) came out at 86%; in “Stability in FBS (serum)” (bovine, serum, Data 2), 82%; in the series “Stability in FBS (serum)” (bovine, serum, Data 3) it was 84%. Moreover, the “RGD-Dox (%)” value in the series “Stability in FBS (serum)” (0 h, Data 2) was 100%; in the series “Stability in FBS (serum)” (0 h, Data 3), 100%; in “Stability in FBS (serum)” (5 h, Data 1) it was 80%; in the series “Stability in FBS (serum)” (5 h, Data 2) it was 77%; in the series “Stability in FBS (serum)” (5 h, Data 3) it was 81%. The “cellular fluorescence (uptake) in LX2 cells” value in the series with LX2 cells is “negligible fluorescence”.

For the origin of these results see PMC10987521, “An all-in-one tetrazine reagent for cysteine-selective labeling and bioorthogonal activable prodrug construction” (Nature Communications, 2024).
